From the supplement of paper PMC10065799, “High-throughput profiling of sequence recognition by tyrosine kinases and SH2 domains using bacterial peptide display” (eLife, 2023)

target: SHP2-C SH2; assay: SH2 binding enrichment of the phosphorylated peptide, bacterial display (enrichment ratio); higher = better substrate or ligand; peptides without Tyr show the background
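Wherever SH2 binding enrichment of the phosphorylated peptide, bacterial display is given: peptide library displayed on the E. coli surface as eCPX fusions, selected cells deep-sequenced, score is each peptide's frequency after selection divided by its frequency in the input.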
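Wherever phosphorylation enrichment, bacterial display is given: 11-residue human phosphosite peptides and single-mutation variants displayed on the E. coli surface, counted by deep sequencing, each peptide's frequency after selection divided by its frequency in the unselected input library; frequency after pTyr selection over input frequency; kinase dosed for 20-30% of maximal phosphorylation in three min.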

Sequence | SH2 binding enrichment
SQQTFYRVSNM [ABCD1_Y181_YF] | 0.762
VRKRSYSAGNA [KANK1_Y324] | 0.398
KSLFHHRQFSA [CPS1_Y1491_Y1491H_YF] | 0.92
CQGSLYPSNHD [LRIG1_Y996] | 0.568
IEDPFYGNDFD [ACP1_Y133_S137F_YF] | 0.753
FNNFGYGNDGF [HNRNPH3_Y161_YF] | 0.704
LSSEMYVKSFT [F5_Y2149_YF] | 0.708
TFGVVYRAKDK [CDK11B_Y453_YF] | 0.64
RFLRGYEQDAF [HLA-A_Y137_R138E_YF] | 0.746
EKLQKYYRQNP [EHHADH_Y682] | 0.746
QRIYQYIQSRF [DYRK1B_Y273] | 1.58
RMSRSYPTGLA [ADM_Y52_S50R] | 0.548
RTVDVYFGPRM [KIRREL3_Y332] | 0.593
HYMELYDLNRD [BBS2_Y648_R643H] | 1.33
KNEIFYQCPDQ [FBXO3_Y223_V221I] | 0.676

The remaining lines, values ahead:

SH2 binding enrichment | Sequence
0.377 | KRRGPYETSPS [PLPP7_Y172]
0.699 | QQLVAYFSKHA [SRC_Y232_YF]
0.735 | QNTGHYSSENT [TMEFF2_Y361_D364E]
0.49 | SLLTDDSPQLQ [OTC_Y345_Y345D]
0.395 | ESDYPYSSSYE [SRPK2_Y427_T426P]
0.586 | STEVIYLPRRK [STK11_Y36_Q37L]
0.784 | GVLDIYGFDIL [MYO1A_Y382_E385D]
0.744 | NNRVFYDNSDR [RS1_Y177_G178D]
0.649 | AGEGSYALDSE [PES1_Y265_T264S]
0.856 | EREFKYGAHNH [OAT_Y50_Y55H_YF]
1.17 | KVALPYKPYFY [POLE_Y100]
0.667 | NFPGGYSGSVK [MCPH1_Y606_L602F]
0.547 | GGFTCYSDGKK [PROS1_Y266_C267S_YF]
0.767 | LRRQDYQEILD [SLC35G2_Y403_K400R]

target: c-Src SH2; assay: as above

Sequence | SH2 binding enrichment
SQQTFYRVSNM [ABCD1_Y181_YF] | 0.525
VRKRSYSAGNA [KANK1_Y324] | 0.343
KSLFHHRQFSA [CPS1_Y1491_Y1491H_YF] | 0.521
CQGSLYPSNHD [LRIG1_Y996] | 0.518
IEDPFYGNDFD [ACP1_Y133_S137F_YF] | 0.736
FNNFGYGNDGF [HNRNPH3_Y161_YF] | 0.554
LSSEMYVKSFT [F5_Y2149_YF] | 0.364
TFGVVYRAKDK [CDK11B_Y453_YF] | 0.426
RFLRGYEQDAF [HLA-A_Y137_R138E_YF] | 0.765
EKLQKYYRQNP [EHHADH_Y682] | 0.548
QRIYQYIQSRF [DYRK1B_Y273] | 2.05
RMSRSYPTGLA [ADM_Y52_S50R] | 0.425
RTVDVYFGPRM [KIRREL3_Y332] | 0.348
HYMELYDLNRD [BBS2_Y648_R643H] | 2.44
KNEIFYQCPDQ [FBXO3_Y223_V221I] | 0.746

More lines, now with the values ahead:

SH2 binding enrichment | Sequence
0.493 | KRRGPYETSPS [PLPP7_Y172]
0.644 | QQLVAYFSKHA [SRC_Y232_YF]
0.467 | QNTGHYSSENT [TMEFF2_Y361_D364E]
0.413 | SLLTDDSPQLQ [OTC_Y345_Y345D]
0.829 | ESDYPYSSSYE [SRPK2_Y427_T426P]
0.336 | STEVIYLPRRK [STK11_Y36_Q37L]
0.427 | GVLDIYGFDIL [MYO1A_Y382_E385D]
0.675 | NNRVFYDNSDR [RS1_Y177_G178D]
0.668 | AGEGSYALDSE [PES1_Y265_T264S]
0.465 | EREFKYGAHNH [OAT_Y50_Y55H_YF]
0.966 | KVALPYKPYFY [POLE_Y100]
0.59 | NFPGGYSGSVK [MCPH1_Y606_L602F]
0.317 | GGFTCYSDGKK [PROS1_Y266_C267S_YF]
3.37 | LRRQDYQEILD [SLC35G2_Y403_K400R]

target: Grb2 SH2 (UniProt P62993); assay: as above

Sequence | SH2 binding enrichment
SQQTFYRVSNM [ABCD1_Y181_YF] | 0.82
VRKRSYSAGNA [KANK1_Y324] | 0.665
KSLFHHRQFSA [CPS1_Y1491_Y1491H_YF] | 0.843
CQGSLYPSNHD [LRIG1_Y996] | 0.781
IEDPFYGNDFD [ACP1_Y133_S137F_YF] | 1.09
FNNFGYGNDGF [HNRNPH3_Y161_YF] | 0.936
LSSEMYVKSFT [F5_Y2149_YF] | 0.676
TFGVVYRAKDK [CDK11B_Y453_YF] | 0.808
RFLRGYEQDAF [HLA-A_Y137_R138E_YF] | 0.894
EKLQKYYRQNP [EHHADH_Y682] | 0.927
QRIYQYIQSRF [DYRK1B_Y273] | 1.26
RMSRSYPTGLA [ADM_Y52_S50R] | 0.721
RTVDVYFGPRM [KIRREL3_Y332] | 0.901
HYMELYDLNRD [BBS2_Y648_R643H] | 1.07
KNEIFYQCPDQ [FBXO3_Y223_V221I] | 0.774

Next, values leading:

SH2 binding enrichment | Sequence
0.549 | KRRGPYETSPS [PLPP7_Y172]
1.57 | QQLVAYFSKHA [SRC_Y232_YF]
0.95 | QNTGHYSSENT [TMEFF2_Y361_D364E]
0.746 | SLLTDDSPQLQ [OTC_Y345_Y345D]
0.832 | ESDYPYSSSYE [SRPK2_Y427_T426P]
0.546 | STEVIYLPRRK [STK11_Y36_Q37L]
0.839 | GVLDIYGFDIL [MYO1A_Y382_E385D]
0.883 | NNRVFYDNSDR [RS1_Y177_G178D]
0.977 | AGEGSYALDSE [PES1_Y265_T264S]
0.788 | EREFKYGAHNH [OAT_Y50_Y55H_YF]
1.25 | KVALPYKPYFY [POLE_Y100]
0.802 | NFPGGYSGSVK [MCPH1_Y606_L602F]
0.711 | GGFTCYSDGKK [PROS1_Y266_C267S_YF]
0.78 | LRRQDYQEILD [SLC35G2_Y403_K400R]

target: Jak2 (UniProt O60674); assay: phosphorylation enrichment, bacterial display (enrichment ratio); higher = better substrate or ligand; peptides without Tyr show the background
Sequence (O60674 whole entry, looked up): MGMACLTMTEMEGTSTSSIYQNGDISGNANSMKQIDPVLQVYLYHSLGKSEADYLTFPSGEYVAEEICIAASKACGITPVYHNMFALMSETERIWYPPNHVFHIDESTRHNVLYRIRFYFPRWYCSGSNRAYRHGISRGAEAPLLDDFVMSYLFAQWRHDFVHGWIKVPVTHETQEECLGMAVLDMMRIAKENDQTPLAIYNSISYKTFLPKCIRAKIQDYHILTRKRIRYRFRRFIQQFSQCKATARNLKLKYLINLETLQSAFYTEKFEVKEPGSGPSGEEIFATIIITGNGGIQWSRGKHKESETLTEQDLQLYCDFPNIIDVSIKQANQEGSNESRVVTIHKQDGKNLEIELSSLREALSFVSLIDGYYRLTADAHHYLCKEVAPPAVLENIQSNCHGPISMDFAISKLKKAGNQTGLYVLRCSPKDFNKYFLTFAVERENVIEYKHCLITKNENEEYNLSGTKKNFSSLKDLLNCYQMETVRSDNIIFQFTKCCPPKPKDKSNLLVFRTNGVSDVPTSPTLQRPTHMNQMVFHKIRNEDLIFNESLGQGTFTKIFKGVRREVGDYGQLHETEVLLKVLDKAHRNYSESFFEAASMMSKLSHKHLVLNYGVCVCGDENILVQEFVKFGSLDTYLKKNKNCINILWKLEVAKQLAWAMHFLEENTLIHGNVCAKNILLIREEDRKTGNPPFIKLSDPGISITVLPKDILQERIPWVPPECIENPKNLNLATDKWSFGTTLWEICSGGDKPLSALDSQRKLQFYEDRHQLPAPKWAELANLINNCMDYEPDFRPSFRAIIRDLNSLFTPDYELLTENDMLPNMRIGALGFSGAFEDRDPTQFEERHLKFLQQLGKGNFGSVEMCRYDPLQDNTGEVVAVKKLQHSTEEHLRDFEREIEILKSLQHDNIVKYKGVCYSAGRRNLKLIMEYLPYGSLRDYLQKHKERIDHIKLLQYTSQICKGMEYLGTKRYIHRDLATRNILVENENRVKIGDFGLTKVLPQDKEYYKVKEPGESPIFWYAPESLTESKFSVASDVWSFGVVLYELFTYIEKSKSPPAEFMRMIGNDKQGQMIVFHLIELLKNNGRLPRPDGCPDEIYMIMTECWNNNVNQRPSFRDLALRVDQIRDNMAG

Sequence | phosphorylation enrichment
SQQTFYRVSNM [ABCD1_Y181_YF] | 0.546
VRKRSYSAGNA [KANK1_Y324] | 0.441
KRRGPYETSPS [PLPP7_Y172] | 0.539
KSLFHHRQFSA [CPS1_Y1491_Y1491H_YF] | 0.407
QQLVAYFSKHA [SRC_Y232_YF] | 0.936
QNTGHYSSENT [TMEFF2_Y361_D364E] | 0.575
SLLTDDSPQLQ [OTC_Y345_Y345D] | 1.22
ESDYPYSSSYE [SRPK2_Y427_T426P] | 0.71
CQGSLYPSNHD [LRIG1_Y996] | 1.03
STEVIYLPRRK [STK11_Y36_Q37L] | 0.568
IEDPFYGNDFD [ACP1_Y133_S137F_YF] | 0.972
GVLDIYGFDIL [MYO1A_Y382_E385D] | 0.955
FNNFGYGNDGF [HNRNPH3_Y161_YF] | 0.937
LSSEMYVKSFT [F5_Y2149_YF] | 0.965
NNRVFYDNSDR [RS1_Y177_G178D] | 0.499
AGEGSYALDSE [PES1_Y265_T264S] | 1.05
TFGVVYRAKDK [CDK11B_Y453_YF] | 0.703
EREFKYGAHNH [OAT_Y50_Y55H_YF] | 0.376
RFLRGYEQDAF [HLA-A_Y137_R138E_YF] | 1.36
EKLQKYYRQNP [EHHADH_Y682] | 0.55
QRIYQYIQSRF [DYRK1B_Y273] | 1.82
RMSRSYPTGLA [ADM_Y52_S50R] | 0.42
RTVDVYFGPRM [KIRREL3_Y332] | 0.618
KVALPYKPYFY [POLE_Y100] | 0.962
NFPGGYSGSVK [MCPH1_Y606_L602F] | 0.539
HYMELYDLNRD [BBS2_Y648_R643H] | 1.22
GGFTCYSDGKK [PROS1_Y266_C267S_YF] | 1.37
LRRQDYQEILD [SLC35G2_Y403_K400R] | 1.06
KNEIFYQCPDQ [FBXO3_Y223_V221I] | 1.07
